B1: MBP-tagged Mre11-C49 peptide (Mre11 C-terminal residues 644-692) [S. cerevisiae] / HisSUMO-tagged Mer2 [S. cerevisiae] (parent complex)
chain 1: SYGLLNGRKTKTKTRPAASTKTASRRGKGRASRTPKTDILGSLLAKKRK
chain 2: MVARGRTDEISTDVSEANSEHSLMITETSSPFRSIFSHSGKVANAGALEESDKQILEWAGKLELESMELRENSDKLIKVLNENSKTLCKSLNKFNQLLEQDAATNGNVKTLIKDLASQIENQLDKVSTAMLSKGDEKKTKSDSSYRQVLVEEISRYNSKITRHVTNKQHETEKSMRCTQEMLFNVGSQLEDVHKVLLSLSKDMHSLQTRQTALEMAFREKADHAYDRPDVSLNGTTLLHDMDEAHDKQRKKSVPPPRMMVTRSMKRRRSSSPTLSTSQNHNSEDNDDASHRLKRAARTIIPWEELRPDTLESEL

Variants of B1 are the subject of one assay. The assay is described as follows: co-expression Ni-NTA pulldown, anti-MBP immunoblot quantification; co-expressed in E. coli; at least seven independent samples; parent: 1; read off a plot. A general note: In western blotting, separated proteins are transferred to a membrane and probed.
Consider chain 1 SYGLLNGRKTKTKTRPAASTKTASRRGKGRASRTPKTDIAGSALAKARK [chain 1 L40A, chain 1 L43A, chain 1 K47A], for which the ratio to parent was approximately 0.35.

Another assay covers variants of B1. Described as above. The source holds these as a separate data set.
For the variant chain 2 MVARGRTDEISTDVSEANSEHSLMITETSSPFRSIFSHSGKVANAGALEASDKAILAWAGALELESMELRENSDKLIKVLNENSKTLCKSLNKFNQLLEQDAATNGNVKTLIKDLASQIENQLDKVSTAMLSKGDEKKTKSDSSYRQVLVEEISRYNSKITRHVTNKQHETEKSMRCTQEMLFNVGSQLEDVHKVLLSLSKDMHSLQTRQTALEMAFREKADHAYDRPDVSLNGTTLLHDMDEAHDKQRKKSVPPPRMMVTRSMKRRRSSSPTLSTSQNHNSEDNDDASHRLKRAARTIIPWEELRPDTLESEL [chain 2 E50A, chain 2 Q54A, chain 2 E57A, chain 2 K61A], the ratio to parent is approximately 0.26.

The values are drawn from publication doi:10.1101/2025.07.08.663703 (2025).
